# Measured values taken from article PMC9482650, “Quantitative fragmentomics allow affinity mapping of interactomes” (Nature Communications, 2022).
# T1: NHERF3_1, Q5T2W1
# T1 sequence (Q5T2W1 4-100, limits assumed, looked up): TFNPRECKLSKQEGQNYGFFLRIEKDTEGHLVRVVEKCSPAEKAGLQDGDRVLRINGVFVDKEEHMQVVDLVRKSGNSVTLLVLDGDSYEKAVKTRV
# T2: NHERF3_3, Q5T2W1
# T2 sequence (Q5T2W1 238-333, limits assumed, looked up): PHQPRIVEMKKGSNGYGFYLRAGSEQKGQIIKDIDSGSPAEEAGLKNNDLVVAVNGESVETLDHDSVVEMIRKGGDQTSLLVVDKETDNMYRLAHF
# T3: SNTG1, Q9NSN8
# T3 sequence (Q9NSN8 52-150, limits assumed, looked up): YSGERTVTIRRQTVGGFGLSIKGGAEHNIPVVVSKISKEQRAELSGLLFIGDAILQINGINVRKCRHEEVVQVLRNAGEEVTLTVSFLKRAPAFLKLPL
# T4: HTRA3, P83110
# T4 sequence (P83110 354-453, limits assumed, looked up): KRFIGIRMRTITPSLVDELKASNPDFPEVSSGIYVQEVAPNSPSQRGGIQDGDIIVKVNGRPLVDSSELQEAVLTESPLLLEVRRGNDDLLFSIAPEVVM
# T5: LNX2_2, Q8N448
# T5 sequence (Q8N448 334-432, limits assumed, looked up): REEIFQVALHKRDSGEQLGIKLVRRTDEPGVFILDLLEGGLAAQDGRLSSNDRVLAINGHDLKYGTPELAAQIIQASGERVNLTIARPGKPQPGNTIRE
# T6: LIN7B, Q9HAP6
# T6 sequence (Q9HAP6 88-185, limits assumed, looked up): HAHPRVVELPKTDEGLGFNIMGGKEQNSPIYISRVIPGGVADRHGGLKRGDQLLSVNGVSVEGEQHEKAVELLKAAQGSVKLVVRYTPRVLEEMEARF
# T7: LRRC7, Q96NW7
# T7 sequence (Q96NW7 1440-1537, limits assumed, looked up): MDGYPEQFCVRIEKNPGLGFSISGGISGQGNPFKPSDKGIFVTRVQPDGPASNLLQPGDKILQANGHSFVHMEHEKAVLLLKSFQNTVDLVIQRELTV
# T8: CARD11, Q9BXL7
# T8 sequence (Q9BXL7 662-765, limits assumed, looked up): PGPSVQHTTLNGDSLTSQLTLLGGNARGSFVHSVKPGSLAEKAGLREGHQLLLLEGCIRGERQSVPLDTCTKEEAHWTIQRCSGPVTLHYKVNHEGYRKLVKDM
# T9: PCLO, Q9Y6V0
# T9 sequence (Q9Y6V0 4491-4600, limits assumed, looked up): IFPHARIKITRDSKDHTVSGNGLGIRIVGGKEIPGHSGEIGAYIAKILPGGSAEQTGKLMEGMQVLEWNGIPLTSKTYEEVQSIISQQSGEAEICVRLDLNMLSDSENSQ
# Target: T1, NHERF3_1, Q5T2W1
# Assay: holdup assay
# Design: key: below the threshold = too weak to quantify, mostly under pKd 3.1 to 4
# Settings: plain residues with an end cap or a label only (N-terminal biotin on a linker: ado-ado)
row,pKd,Binder
1,4.59,"DTKNYKQTSV [CRIPT, Q9P021]"

# Target: MAGI2_4, Q86UL8
# Sequence (Q86UL8 772-865): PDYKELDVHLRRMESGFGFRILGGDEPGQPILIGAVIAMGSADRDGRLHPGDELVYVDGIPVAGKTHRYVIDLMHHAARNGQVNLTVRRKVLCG
# Assay: holdup assay
# Design: key: below the threshold = too weak to quantify, mostly under pKd 3.1 to 4
# Settings: plain residues with an end cap or a label only (N-terminal biotin on a linker: ado-ado)
row,pKd,Binder
1,3.87,"DTKNYKQTSV [CRIPT, Q9P021]"

# Target: Inadl_5, Q8NI35
# Sequence (Q8NI35 673-780): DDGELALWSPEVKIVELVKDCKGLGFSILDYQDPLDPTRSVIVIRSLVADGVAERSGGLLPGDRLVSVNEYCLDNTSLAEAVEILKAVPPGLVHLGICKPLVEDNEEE
# Assay: holdup assay
# Design: key: below the threshold = too weak to quantify, mostly under pKd 3.1 to 4
# Settings: plain residues with an end cap or a label only (N-terminal biotin on a linker: ado-ado)
row,pKd,Binder
1,below the threshold,"DTKNYKQTSV [CRIPT, Q9P021]"

# Target: IL16_3, Q14005
# Sequence (Q14005 1107-1207): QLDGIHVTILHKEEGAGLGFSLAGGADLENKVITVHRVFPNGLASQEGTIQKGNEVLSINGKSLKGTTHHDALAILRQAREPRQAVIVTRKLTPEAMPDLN
# Assay: holdup assay
# Design: key: below the threshold = too weak to quantify, mostly under pKd 3.1 to 4
# Settings: plain residues with an end cap or a label only (N-terminal biotin on a linker: ado-ado)
row,pKd,Binder
1,below the threshold,"DTKNYKQTSV [CRIPT, Q9P021]"

# Target: DLG4_3, P78352
# Sequence (P78352 306-403): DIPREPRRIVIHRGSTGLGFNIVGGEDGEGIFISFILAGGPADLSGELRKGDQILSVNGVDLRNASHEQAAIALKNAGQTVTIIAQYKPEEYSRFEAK
# Assay: holdup assay
# Design: key: below the threshold = too weak to quantify, mostly under pKd 3.1 to 4
# Settings: plain residues with an end cap or a label only (N-terminal biotin on a linker: ado-ado)
row,pKd,Binder
1,5.39,"DTKNYKQTSV [CRIPT, Q9P021]"

# Target: GRIP2_5, Q9C0E4
# Sequence (Q9C0E4 544-642): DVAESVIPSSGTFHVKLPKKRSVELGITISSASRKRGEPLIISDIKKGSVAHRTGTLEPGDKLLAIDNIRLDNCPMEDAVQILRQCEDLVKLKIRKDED
# Assay: holdup assay
# Design: key: below the threshold = too weak to quantify, mostly under pKd 3.1 to 4
# Settings: plain residues with an end cap or a label only (N-terminal biotin on a linker: ado-ado)
row,pKd,Binder
1,below the threshold,"DTKNYKQTSV [CRIPT, Q9P021]"

# Target: GOPC, Q9HD26
# Assay: holdup assay
# Design: key: below the threshold = too weak to quantify, mostly under pKd 3.1 to 4
# Settings: plain residues with an end cap or a label only (N-terminal biotin on a linker: ado-ado)
row,pKd,Binder
1,3.87,"DTKNYKQTSV [CRIPT, Q9P021]"

# Target: SNX27, Q96L92
# Assay: holdup assay
# Design: key: below the threshold = too weak to quantify, mostly under pKd 3.1 to 4
# Settings: plain residues with an end cap or a label only (N-terminal biotin on a linker: ado-ado)
row,pKd,Binder
1,5.33,"DTKNYKQTSV [CRIPT, Q9P021]"

# Target: T2, NHERF3_3, Q5T2W1
# Assay: holdup assay
# Design: key: below the threshold = too weak to quantify, mostly under pKd 3.1 to 4
# Settings: plain residues with an end cap or a label only (N-terminal biotin on a linker: ado-ado)
row,pKd,Binder
1,below the threshold,"DTKNYKQTSV [CRIPT, Q9P021]"

# Target: T3, SNTG1, Q9NSN8
# Assay: holdup assay
# Design: key: below the threshold = too weak to quantify, mostly under pKd 3.1 to 4
# Settings: plain residues with an end cap or a label only (N-terminal biotin on a linker: ado-ado)
row,pKd,Binder
1,4.12,"DTKNYKQTSV [CRIPT, Q9P021]"

# Target: TJP2_1, Q9UDY2
# Sequence (Q9UDY2 24-128): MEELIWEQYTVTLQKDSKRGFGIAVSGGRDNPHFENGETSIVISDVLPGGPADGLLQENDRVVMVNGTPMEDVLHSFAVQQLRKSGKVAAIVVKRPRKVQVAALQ
# Assay: holdup assay
# Design: key: below the threshold = too weak to quantify, mostly under pKd 3.1 to 4
# Settings: plain residues with an end cap or a label only (N-terminal biotin on a linker: ado-ado)
row,pKd,Binder
1,below the threshold,"DTKNYKQTSV [CRIPT, Q9P021]"

# Target: LAP2, Q96RT1
# Sequence (Q96RT1 other isoform, or with tags, fused parts or gaps): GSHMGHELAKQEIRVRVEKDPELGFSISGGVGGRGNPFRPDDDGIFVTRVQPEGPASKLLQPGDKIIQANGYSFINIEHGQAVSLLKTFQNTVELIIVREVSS
# Assay: holdup assay
# Design: key: below the threshold = too weak to quantify, mostly under pKd 3.1 to 4
# Settings: plain residues with an end cap or a label only (N-terminal biotin on a linker: ado-ado)
row,pKd,Binder
1,4.32,"DTKNYKQTSV [CRIPT, Q9P021]"

# Target: DLG5_1, Q8TDM6
# Sequence (Q8TDM6 617-713): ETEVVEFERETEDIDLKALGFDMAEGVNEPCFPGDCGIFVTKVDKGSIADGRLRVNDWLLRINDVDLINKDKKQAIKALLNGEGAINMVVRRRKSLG
# Assay: holdup assay
# Design: key: below the threshold = too weak to quantify, mostly under pKd 3.1 to 4
# Settings: plain residues with an end cap or a label only (N-terminal biotin on a linker: ado-ado)
row,pKd,Binder
1,below the threshold,"DTKNYKQTSV [CRIPT, Q9P021]"

# Target: NHERF4_1, Q86UT5-2
# Sequence (Q86UT5 other isoform, or with tags, fused parts or gaps): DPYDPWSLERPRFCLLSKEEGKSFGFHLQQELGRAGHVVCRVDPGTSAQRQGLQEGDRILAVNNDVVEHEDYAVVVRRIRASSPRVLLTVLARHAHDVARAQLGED
# Assay: holdup assay
# Design: key: below the threshold = too weak to quantify, mostly under pKd 3.1 to 4
# Settings: plain residues with an end cap or a label only (N-terminal biotin on a linker: ado-ado)
row,pKd,Binder
1,3.53,"DTKNYKQTSV [CRIPT, Q9P021]"

# Target: T4, HTRA3, P83110
# Assay: holdup assay
# Design: key: below the threshold = too weak to quantify, mostly under pKd 3.1 to 4
# Settings: plain residues with an end cap or a label only (N-terminal biotin on a linker: ado-ado)
row,pKd,Binder
1,below the threshold,"DTKNYKQTSV [CRIPT, Q9P021]"

# Target: T5, LNX2_2, Q8N448
# Assay: holdup assay
# Design: key: below the threshold = too weak to quantify, mostly under pKd 3.1 to 4
# Settings: plain residues with an end cap or a label only (N-terminal biotin on a linker: ado-ado)
row,pKd,Binder
1,3.66,"DTKNYKQTSV [CRIPT, Q9P021]"

# Target: GRIP2_7, Q9C0E4
# Sequence (Q9C0E4 934-1023): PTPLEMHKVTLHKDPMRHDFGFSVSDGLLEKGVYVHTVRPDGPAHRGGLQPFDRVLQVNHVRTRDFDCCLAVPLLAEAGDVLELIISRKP
# Assay: holdup assay
# Design: key: below the threshold = too weak to quantify, mostly under pKd 3.1 to 4
# Settings: plain residues with an end cap or a label only (N-terminal biotin on a linker: ado-ado)
row,pKd,Binder
1,below the threshold,"DTKNYKQTSV [CRIPT, Q9P021]"

# Target: LDB3, O75112
# Sequence (O75112 1-94): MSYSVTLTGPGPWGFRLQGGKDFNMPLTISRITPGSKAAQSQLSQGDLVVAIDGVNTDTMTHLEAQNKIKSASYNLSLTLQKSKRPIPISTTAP
# Assay: holdup assay
# Design: key: below the threshold = too weak to quantify, mostly under pKd 3.1 to 4
# Settings: plain residues with an end cap or a label only (N-terminal biotin on a linker: ado-ado)
row,pKd,Binder
1,below the threshold,"DTKNYKQTSV [CRIPT, Q9P021]"

# Target: T6, LIN7B, Q9HAP6
# Assay: holdup assay
# Design: key: below the threshold = too weak to quantify, mostly under pKd 3.1 to 4
# Settings: plain residues with an end cap or a label only (N-terminal biotin on a linker: ado-ado)
row,pKd,Binder
1,below the threshold,"DTKNYKQTSV [CRIPT, Q9P021]"

# Target: PICK1, Q9NRD5
# Sequence (Q9NRD5 17-115): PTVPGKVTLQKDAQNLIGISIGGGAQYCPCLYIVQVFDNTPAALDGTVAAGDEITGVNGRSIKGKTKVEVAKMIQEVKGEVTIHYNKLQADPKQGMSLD
# Assay: holdup assay
# Design: key: below the threshold = too weak to quantify, mostly under pKd 3.1 to 4
# Settings: plain residues with an end cap or a label only (N-terminal biotin on a linker: ado-ado)
row,pKd,Binder
1,4.15,"DTKNYKQTSV [CRIPT, Q9P021]"

# Target: SCRIB_3, Q14160
# Sequence (Q14160 999-1103): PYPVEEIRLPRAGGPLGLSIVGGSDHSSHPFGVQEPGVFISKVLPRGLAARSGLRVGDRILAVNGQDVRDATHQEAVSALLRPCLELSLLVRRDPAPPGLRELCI
# Assay: holdup assay
# Design: key: below the threshold = too weak to quantify, mostly under pKd 3.1 to 4
# Settings: plain residues with an end cap or a label only (N-terminal biotin on a linker: ado-ado)
row,pKd,Binder
1,4.98,"DTKNYKQTSV [CRIPT, Q9P021]"

# Target: T7, LRRC7, Q96NW7
# Assay: holdup assay
# Design: key: below the threshold = too weak to quantify, mostly under pKd 3.1 to 4
# Settings: plain residues with an end cap or a label only (N-terminal biotin on a linker: ado-ado)
row,pKd,Binder
1,3.92,"DTKNYKQTSV [CRIPT, Q9P021]"

# Target: SCRIB_2, Q14160
# Sequence (Q14160 857-960): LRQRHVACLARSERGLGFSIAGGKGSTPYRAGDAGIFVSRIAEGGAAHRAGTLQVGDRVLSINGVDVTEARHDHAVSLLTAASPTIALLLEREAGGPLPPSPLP
# Assay: holdup assay
# Design: key: below the threshold = too weak to quantify, mostly under pKd 3.1 to 4
# Settings: plain residues with an end cap or a label only (N-terminal biotin on a linker: ado-ado)
row,pKd,Binder
1,4.61,"DTKNYKQTSV [CRIPT, Q9P021]"

# Target: GRID2IP_2, A4D2P6
# Sequence (A4D2P6 272-370): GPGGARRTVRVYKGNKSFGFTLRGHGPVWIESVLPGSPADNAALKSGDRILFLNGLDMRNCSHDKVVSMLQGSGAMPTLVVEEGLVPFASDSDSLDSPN
# Assay: holdup assay
# Design: key: below the threshold = too weak to quantify, mostly under pKd 3.1 to 4
# Settings: plain residues with an end cap or a label only (N-terminal biotin on a linker: ado-ado)
row,pKd,Binder
1,4.39,"DTKNYKQTSV [CRIPT, Q9P021]"

# Target: NHERF4_2, Q86UT5
# Sequence (Q86UT5 220-308): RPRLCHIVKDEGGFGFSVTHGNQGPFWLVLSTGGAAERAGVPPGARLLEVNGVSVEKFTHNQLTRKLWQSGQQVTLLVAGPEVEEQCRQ
# Assay: holdup assay
# Design: key: below the threshold = too weak to quantify, mostly under pKd 3.1 to 4
# Settings: plain residues with an end cap or a label only (N-terminal biotin on a linker: ado-ado)
row,pKd,Binder
1,below the threshold,"DTKNYKQTSV [CRIPT, Q9P021]"

# Target: Inadl_10, Q8NI35
# Sequence (Q8NI35 1673-1763): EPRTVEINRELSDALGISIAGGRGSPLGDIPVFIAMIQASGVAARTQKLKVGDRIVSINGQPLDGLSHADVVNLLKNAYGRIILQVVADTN
# Assay: holdup assay
# Design: key: below the threshold = too weak to quantify, mostly under pKd 3.1 to 4
# Settings: plain residues with an end cap or a label only (N-terminal biotin on a linker: ado-ado)
row,pKd,Binder
1,below the threshold,"DTKNYKQTSV [CRIPT, Q9P021]"

# Target: T8, CARD11, Q9BXL7
# Assay: holdup assay
# Design: key: below the threshold = too weak to quantify, mostly under pKd 3.1 to 4
# Settings: plain residues with an end cap or a label only (N-terminal biotin on a linker: ado-ado)
row,pKd,Binder
1,below the threshold,"DTKNYKQTSV [CRIPT, Q9P021]"

# Target: T9, PCLO, Q9Y6V0
# Assay: holdup assay
# Design: key: below the threshold = too weak to quantify, mostly under pKd 3.1 to 4
# Settings: plain residues with an end cap or a label only (N-terminal biotin on a linker: ado-ado)
row,pKd,Binder
1,below the threshold,"DTKNYKQTSV [CRIPT, Q9P021]"
